Data from paper doi:10.1101/2025.07.01.662521, “Ligand-induced Conformational Plasticity of the CTLH E3 Ligase Receptor GID4” (bioRxiv, 2025).

Biological target: T1, Human Glucose-induced degradation protein 4 homolog (GID4), residues 116-300, N-terminally Avi-tagged, … (human, UniProt Q8IVV7 116-300, biotin (BirA, on the AVI tag))
T1 construct: Glucose-induced degradation protein 4 homolog (GID4), human, UniProt Q8IVV7, residues 116-300; Construct: N-terminal Strep-SUMO-3C-6xHis-AVI-tag; cleaved with HRV-3C protease, which by the printed order of the tags should leave 6xHis-AVI on the protein; also called hGID4; biotinylated GID4; source: E. coli BL21(DE3), purified (Streptactin XT, HRV-3C cleavage, BirA biotinylation, SEC); not shown: …
T1 sequence (looked up): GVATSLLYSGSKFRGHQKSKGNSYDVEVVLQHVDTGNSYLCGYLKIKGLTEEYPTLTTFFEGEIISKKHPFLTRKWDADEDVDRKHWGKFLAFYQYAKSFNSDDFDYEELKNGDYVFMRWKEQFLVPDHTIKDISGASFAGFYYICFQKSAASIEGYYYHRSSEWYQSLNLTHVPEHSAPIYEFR
Assay: SPR; biotinylated GID4 (116-300) captured on an SA chip (about 2500 RU), Biacore 8K; peptide flowed over; PBS pH 7.4, 0.05% P-20, 1 mM DTT, 1% DMSO
Conditions: both partners purified

Kd: 2130 nM
B1: degron peptide PGLWKS (peptide)
peptide: PGLWKS
notes: Pro/N-degron peptide; also called endogenous degron peptide; PGLWKS degron peptide
